How the values were obtained:
[1] = target: human FcRn and human B2M (beta-2-microglobulin) expressed on MDCK II cells (human) (UniProt P55899); test: cell-based or functional assay
[2] = target: human FcRn protein (human) (UniProt P55899); test: SPR, Ab on Protein L chip, hFcRn in flow, pH 6.0
[3] = target: human FcRn protein (human) (UniProt P55899); test: SPR, Ab on Protein L chip, hFcRn in flow, pH 7.4

Sequence of human FcRn and human B2M (beta-2-microglobulin) expressed on MDCK II cells (human) (P55899 24-365 limits assumed, chain 1 of 2): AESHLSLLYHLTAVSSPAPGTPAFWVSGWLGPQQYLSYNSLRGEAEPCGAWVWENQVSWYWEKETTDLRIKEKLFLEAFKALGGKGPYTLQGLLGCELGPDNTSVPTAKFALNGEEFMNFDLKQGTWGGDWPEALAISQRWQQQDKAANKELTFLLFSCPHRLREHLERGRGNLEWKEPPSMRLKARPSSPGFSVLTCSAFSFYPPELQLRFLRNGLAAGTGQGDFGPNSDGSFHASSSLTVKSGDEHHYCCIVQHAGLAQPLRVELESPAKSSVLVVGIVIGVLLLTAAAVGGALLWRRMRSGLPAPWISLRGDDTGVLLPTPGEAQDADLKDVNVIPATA
Sequence of human FcRn and human B2M (beta-2-microglobulin) expressed on MDCK II cells (human) (b2m, as listed by the source limits assumed, chain 2 of 2): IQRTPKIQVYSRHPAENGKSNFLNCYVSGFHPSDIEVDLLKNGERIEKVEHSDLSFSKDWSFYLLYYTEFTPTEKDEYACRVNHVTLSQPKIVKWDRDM
Sequence of human FcRn protein (human) (P55899 24-297 limits assumed, chain 1 of 2): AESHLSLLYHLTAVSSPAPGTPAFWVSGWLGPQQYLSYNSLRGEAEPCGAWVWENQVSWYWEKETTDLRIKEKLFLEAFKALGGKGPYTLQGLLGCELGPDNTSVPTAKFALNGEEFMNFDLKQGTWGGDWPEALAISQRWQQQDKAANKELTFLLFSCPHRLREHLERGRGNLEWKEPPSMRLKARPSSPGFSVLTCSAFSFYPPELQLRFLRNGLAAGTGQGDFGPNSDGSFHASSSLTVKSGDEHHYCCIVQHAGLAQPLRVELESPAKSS
Sequence of human FcRn protein (human) (chain, as listed by the source limits assumed, chain 2 of 2): as the sequence (b2m, as listed by the source limits assumed, chain 2 of 2) above

anti-O4 hIgG1 M252Y/T256A/V308P/N434W (antibody)
Transcytosis Normalized to IAHA at pH 6.0 (ratio to IAHA) [1]: 190

anti-O4 hIgG1 M252Y/T256A/V308P/N434Y (antibody)
Transcytosis Normalized to IAHA at pH 6.0 (ratio to IAHA) [1]: 193

anti-O4 hIgG1 M252Y/T256D/V308P/N434W (antibody)
Transcytosis Normalized to IAHA at pH 6.0 (ratio to IAHA) [1]: 153

anti-O4 hIgG1 M252Y/T256E/V308P/N434F (antibody)
Transcytosis Normalized to IAHA at pH 6.0 (ratio to IAHA) [1]: 182

anti-O4 hIgG1 M252Y/T256E/V308P/N434H (antibody)
Transcytosis Normalized to IAHA at pH 6.0 (ratio to IAHA) [1]: 155

anti-O4 hIgG1 M252Y/T256E/V308P/N434W (antibody)
Transcytosis Normalized to IAHA at pH 6.0 (ratio to IAHA) [1]: 154

anti-O4 hIgG1 M252Y/T256E/V308P/N434Y (antibody)
Transcytosis Normalized to IAHA at pH 6.0 (ratio to IAHA) [1]: 124

anti-O4 hIgG1 M252Y/T256F/V308P/N434F (antibody)
Transcytosis Normalized to IAHA at pH 6.0 (ratio to IAHA) [1]: 60.4

anti-O4 hIgG1 M252Y/T256F/V308P/N434Y (antibody)
Transcytosis Normalized to IAHA at pH 6.0 (ratio to IAHA) [1]: 193

anti-O4 hIgG1 M252Y/T256G/V308P/N434Y (antibody)
Transcytosis Normalized to IAHA at pH 6.0 (ratio to IAHA) [1]: 130

anti-O4 hIgG1 M252Y/T256H/V308P/N434F (antibody)
Transcytosis Normalized to IAHA at pH 6.0 (ratio to IAHA) [1]: 192

anti-O4 hIgG1 M252Y/T256I/V308P/N434Y (antibody)
Transcytosis Normalized to IAHA at pH 6.0 (ratio to IAHA) [1]: 126

anti-O4 hIgG1 M252Y/T256L/V308P/N434W (antibody)
Transcytosis Normalized to IAHA at pH 6.0 (ratio to IAHA) [1]: 217

anti-O4 hIgG1 M252Y/T256L/V308P/N434Y (antibody)
Transcytosis Normalized to IAHA at pH 6.0 (ratio to IAHA) [1]: 303

anti-O4 hIgG1 M252Y/T256N/V308P/N434Y (antibody)
Transcytosis Normalized to IAHA at pH 6.0 (ratio to IAHA) [1]: 174

anti-O4 hIgG1 M252Y/T256P/V308P/N434W (antibody)
Transcytosis Normalized to IAHA at pH 6.0 (ratio to IAHA) [1]: 208

anti-O4 hIgG1 M252Y/T256P/V308P/N434Y (antibody)
Transcytosis Normalized to IAHA at pH 6.0 (ratio to IAHA) [1]: 132

anti-O4 hIgG1 M252Y/T256Q/V308P/N434W (antibody)
Transcytosis Normalized to IAHA at pH 6.0 (ratio to IAHA) [1]: 156

anti-O4 hIgG1 M252Y/T256Q/V308P/N434Y (antibody)
Transcytosis Normalized to IAHA at pH 6.0 (ratio to IAHA) [1]: 286

anti-O4 hIgG1 M252Y/T256R/V308P/N434W (antibody)
Transcytosis Normalized to IAHA at pH 6.0 (ratio to IAHA) [1]: 162

anti-O4 hIgG1 M252Y/T256R/V308P/N434Y (antibody)
Transcytosis Normalized to IAHA at pH 6.0 (ratio to IAHA) [1]: 655

anti-O4 hIgG1 M252Y/T256S/V308P/N434W (antibody)
Transcytosis Normalized to IAHA at pH 6.0 (ratio to IAHA) [1]: 159

anti-O4 hIgG1 M252Y/T256S/V308P/N434Y (antibody)
Transcytosis Normalized to IAHA at pH 6.0 (ratio to IAHA) [1]: 156

anti-O4 hIgG1 M252Y/T256V/V308P/N434F (antibody)
Transcytosis Normalized to IAHA at pH 6.0 (ratio to IAHA) [1]: 98.9

anti-O4 hIgG1 M252Y/T256V/V308P/N434W (antibody)
Transcytosis Normalized to IAHA at pH 6.0 (ratio to IAHA) [1]: 209

anti-O4 hIgG1 M252Y/T256V/V308P/N434Y (antibody)
Transcytosis Normalized to IAHA at pH 6.0 (ratio to IAHA) [1]: 183

anti-O4 hIgG1 M252Y/T256W/V308P/N434W (antibody)
Transcytosis Normalized to IAHA at pH 6.0 (ratio to IAHA) [1]: 147

anti-O4 hIgG1 M252Y/T256W/V308P/N434Y (antibody)
Transcytosis Normalized to IAHA at pH 6.0 (ratio to IAHA) [1]: 588

anti-O4 hIgG1 M252Y/T256Y/V308P/N434Y (antibody)
Transcytosis Normalized to IAHA at pH 6.0 (ratio to IAHA) [1]: 8.35

anti-O4 hIgG1 M252Y/V308P (antibody)
Transcytosis Normalized to IAHA at pH 6.0 (ratio to IAHA) [1]: 281

anti-O4 hIgG1 WT (wild type Fc) (antibody)
Transcytosis Normalized to IAHA at pH 6.0 (ratio to IAHA) [1]: 122

hIgG1 M252Y/N286E/V308P/M428I/N434Y, O4 VH with Ab6 light chain (antibody)
Kd [2]: 0.000109 µM | koff [2]: 0.000201 s⁻¹ | kon [2]: 1.84e+06 M⁻¹ s⁻¹ | Kd [3]: 1.03 µM | koff [3]: 1.03 s⁻¹ | kon [3]: 1e+06 M⁻¹ s⁻¹

hIgG1 M252Y/N434Y/Y436V, O4 VH with Ab6 light chain (antibody)
Kd [2]: 0.00548 µM | koff [2]: 0.00756 s⁻¹ | kon [2]: 1.38e+06 M⁻¹ s⁻¹ | Kd [3]: 25.7 µM | koff [3]: 1.14 s⁻¹ | kon [3]: 44300 M⁻¹ s⁻¹

hIgG1 M252Y/S254T/T256E/V308P, O4 VH with Ab6 light chain (antibody)
Kd [2]: 0.0215 µM | koff [2]: 0.0139 s⁻¹ | kon [2]: 648000 M⁻¹ s⁻¹ | Kd [3]: 0.975 µM | koff [3]: 1.96 s⁻¹ | kon [3]: 2.01e+06 M⁻¹ s⁻¹

hIgG1 M252Y/S254T/T256E/V308P/N434W, O4 VH with Ab6 light chain (antibody)
Kd [2]: 0.000471 µM | koff [2]: 0.000795 s⁻¹ | kon [2]: 1.69e+06 M⁻¹ s⁻¹ | Kd [3]: 0.122 µM | koff [3]: 0.00101 s⁻¹ | kon [3]: 8320 M⁻¹ s⁻¹

hIgG1 M252Y/S254T/V308P, O4 VH with Ab6 light chain (antibody)
Kd [2]: 0.0317 µM | koff [2]: 0.0177 s⁻¹ | kon [2]: 557000 M⁻¹ s⁻¹ | Kd [3]: 76.7 µM | koff [3]: 1.13 s⁻¹ | kon [3]: 14700 M⁻¹ s⁻¹

hIgG1 M252Y/T256K/V308P/N434W, O4 VH with Ab6 light chain (antibody)
Kd [2]: 0.00131 µM | koff [2]: 0.00143 s⁻¹ | Kd [3]: 0.239 µM

hIgG1 M252Y/V308P, O4 VH with Ab6 light chain (antibody)
Kd [2]: 0.0374 µM | koff [2]: 0.0279 s⁻¹ | kon [2]: 745000 M⁻¹ s⁻¹ | Kd [3]: 0.0518 µM | koff [3]: 0.00221 s⁻¹ | kon [3]: 42600 M⁻¹ s⁻¹

— patent US20240150447A1
